Reference: IntAct's records for PubMed 31515488

B1: Interleukin-1 receptor-associated kinase 4 (Homo sapiens), Q9NWZ3 (parent)
chain: MNKPITPSTYVRCLNVGLIRKLSDFIDPQEGWKKLAVAIKKPSGDDRYNQFHIRRFEALLQTGKSPTSELLFDWGTTNCTVGDLVDLLIQNEFFAPASLLLPDAVPKTANTLPSKEAITVQQKQMPFCDKDRTLMTPVQNLEQSYMPPDSSSPENKSLEVSDTRFHSFSFYELKNVTNNFDERPISVGGNKMGEGGFGVVYKGYVNNTTVAVKKLAAMVDITTEELKQQFDQEIKVMAKCQHENLVELLGFSSDGDDLCLVYVYMPNGSLLDRLSCLDGTPPLSWHMRCKIAQGAANGINFLHENHHIHRDIKSANILLDEAFTAKISDFGLARASEKFAQTVMTSRIVGTTAYMAPEALRGEITPKSDIYSFGVVLLEIITGLPAVDEHREPQLLLDIKEEIEDEEKTIEDYIDKKMNDADSTSVEAMYSVASQCLHEKKNKRPDIKKVQQLLQEMTAS
B2: Retinoic acid receptor RXR-gamma (Homo sapiens), P48443 (parent)
chain: MYGNYSHFMKFPAGYGGSPGHTGSTSMSPSAALSTGKPMDSHPSYTDTPVSAPRTLSAVGTPLNALGSPYRVITSAMGPPSGALAAPPGINLVAPPSSQLNVVNSVSSSEDIKPLPGLPGIGNMNYPSTSPGSLVKHICAICGDRSSGKHYGVYSCEGCKGFFKRTIRKDLIYTCRDNKDCLIDKRQRNRCQYCRYQKCLVMGMKREAVQEERQRSRERAESEAECATSGHEDMPVERILEAELAVEPKTESYGDMNMENSTNDPVTNICHAADKQLFTLVEWAKRIPHFSDLTLEDQVILLRAGWNELLIASFSHRSVSVQDGILLATGLHVHRSSAHSAGVGSIFDRVLTELVSKMKDMQMDKSELGCLRAIVLFNPDAKGLSNPSEVETLREKVYATLEAYTKQKYPEQPGRFAKLLLRLPALRSIGLKCLEHLFFFKLIGDTPIDTFLMEMLETPLQIT
partner: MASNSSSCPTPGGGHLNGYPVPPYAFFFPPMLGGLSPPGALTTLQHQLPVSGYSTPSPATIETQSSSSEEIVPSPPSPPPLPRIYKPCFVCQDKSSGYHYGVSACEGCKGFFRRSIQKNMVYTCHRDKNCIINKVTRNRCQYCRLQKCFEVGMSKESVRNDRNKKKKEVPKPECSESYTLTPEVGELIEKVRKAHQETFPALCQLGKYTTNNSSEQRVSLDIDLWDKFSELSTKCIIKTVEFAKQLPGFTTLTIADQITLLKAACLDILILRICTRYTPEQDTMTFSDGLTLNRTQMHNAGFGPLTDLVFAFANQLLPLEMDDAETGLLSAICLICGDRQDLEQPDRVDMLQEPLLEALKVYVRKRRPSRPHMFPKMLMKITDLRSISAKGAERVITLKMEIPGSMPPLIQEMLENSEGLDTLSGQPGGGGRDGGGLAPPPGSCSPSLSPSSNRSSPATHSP
B3: Uncharacterized protein C3orf62 (Homo sapiens), Q6ZUJ4 (parent)
chain: MHYIKTWSLLGEMSEKLRRCRKELTAAIDRAFEGVSYSQECTGQQRLELSAAPLSFSLPVHRLLCRRHPLAACSSAAPFAAVPCAPENENPAFATNHAPVNAKPHALCPERKPLTSKENVLMHSSILAPERESWRTAGEGENWRKENLRKDMERDLKADSNMPLNNSSQEVTKDLLDMIDHTSIRTIEELAGKIEFENELNHMCGHCQDSPFKEEAWALLMDKSPQKATDADPGSLKQAFDDHNIVETVLDLEEDYNVMTSFKYQIE
partner: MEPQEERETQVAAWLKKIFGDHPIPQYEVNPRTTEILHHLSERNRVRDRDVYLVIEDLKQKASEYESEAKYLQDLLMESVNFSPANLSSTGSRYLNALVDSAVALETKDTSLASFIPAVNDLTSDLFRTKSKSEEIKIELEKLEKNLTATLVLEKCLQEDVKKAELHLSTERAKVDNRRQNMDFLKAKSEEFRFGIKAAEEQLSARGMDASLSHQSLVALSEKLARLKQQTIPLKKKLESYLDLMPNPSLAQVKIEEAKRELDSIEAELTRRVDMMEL
B4: Keratin, type II cuticular Hb6 (Homo sapiens), O43790 (parent)
chain: MTCGSYCGGRAFSCISACGPRPGRCCITAAPYRGISCYRGLTGGFGSHSVCGGFRAGSCGRSFGYRSGGVCGPSPPCITTVSVNESLLTPLNLEIDPNAQCVKQEEKEQIKSLNSRFAAFIDKVRFLEQQNKLLETKLQFYQNRECCQSNLEPLFEGYIETLRREAECVEADSGRLASELNHVQEVLEGYKKKYEEEVSLRATAENEFVALKKDVDCAYLRKSDLEANVEALIQEIDFLRRLYEEEIRVLQSHISDTSVVVKLDNSRDLNMDCIIAEIKAQYDDIVTRSRAEAESWYRSKCEEMKATVIRHGETLRRTKEEINELNRMIQRLTAEVENAKCQNSKLEAAVAQSEQQGEAALSDARCKLAELEGALQKAKQDMACLIREYQEVMNSKLGLDIEIATYRRLLEGEEQRLCEGVGSVNVCVSSSRGGVVCGDLCASTTAPVVSTRVSSVPSNSNVVVGTTNACAPSARVGVCGGSCKRC
B5: F-BAR domain only protein 1 (Homo sapiens), O14526 (parent)
chain: MSYFGEHFWGEKNHGFEVLYHSVKQGPISTKELADFIRERATIEETYSKAMAKLSKLASNGTPMGTFAPLWEVFRVSSDKLALCHLELTRKLQDLIKDVLRYGEEQLKTHKKCKEEVVSTLDAVQVLSGVSQLLPKSRENYLNRCMDQERLRRESTSQKEMDKAETKTKKAAESLRRSVEKYNSARADFEQKMLDSALRFQAMEETHLRHMKALLGSYAHSVEDTHVQIGQVHEEFKQNIENVSVEMLLRKFAESKGTGREKPGPLDFEAYSAAALQEAMKRLRGAKAFRLPGLSRREREPEPPAAVDFLEPDSGTCPEVDEEGFTVRPDVTQNSTAEPSRFSSSDSDFDDEEPRKFYVHIKPAPARAPACSPEAAAAQLRATAGSLILPPGPGGTMKRHSSRDAAGKPQRPRSAPRTSSCAERLQSEEQVSKNLFGPPLESAFDHEDFTGSSSLGFTSSPSPFSSSSPENVEDSGLDSPSHAAPGPSPDSWVPRPGTPQSPPSCRAPPPEARGIRAPPLPDSPQPLASSPGPWGLEALAGGDLMPAPADPTAREGLAAPPRRLRSRKVSCPLTRSNGDLSRSLSPSPLGSSAASTALERPSFLSQTGHGVSRGPSPVVLGSQDALPIATAFTEYVHAYFRGHSPSCLARVTGELTMTFPAGIVRVFSGTPPPPVLSFRLVHTTAIEHFQPNADLLFSDPSQSDPETKDFWLNMAALTEALQRQAEQNPTASYYNVVLLRYQFSRPGPQSVPLQLSAHWQCGATLTQVSVEYGYRPGATAVPTPLTNVQILLPVGEPVTNVRLQPAATWNLEEKRLTWRLPDVSEAGGSGRLSASWEPLSGPSTPSPVAAQFTSEGTTLSGVDLELVGSGYRMSLVKRRFATGMYLVSC
partner: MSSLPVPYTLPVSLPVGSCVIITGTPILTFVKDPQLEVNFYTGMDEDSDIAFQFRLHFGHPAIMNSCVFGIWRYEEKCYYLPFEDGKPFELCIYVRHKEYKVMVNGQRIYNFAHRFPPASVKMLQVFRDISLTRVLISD
B6: Splicing factor 45 (Homo sapiens), Q96I25 (parent)
chain: MSLYDDLGVETSDSKTEGWSKNFKLLQSQLQVKKAALTQAKSQRTKQSTVLAPVIDLKRGGSSDDRQIVDTPPHVAAGLKDPVPSGFSAGEVLIPLADEYDPMFPNDYEKVVKRQREERQRQRELERQKEIEEREKRRKDRHEASGFARRPDPDSDEDEDYERERRKRSMGGAAIAPPTSLVEKDKELPRDFPYEEDSRPRSQSSKAAIPPPVYEEQDRPRSPTGPSNSFLANMGGTVAHKIMQKYGFREGQGLGKHEQGLSTALSVEKTSKRGGKIIVGDATEKDASKKSDSNPLTEILKCPTKVVLLRNMVGAGEVDEDLEVETKEECEKYGKVGKCVIFEIPGAPDDEAVRIFLEFERVESAIKAVVDLNGRYFGGRVVKACFYNLDKFRVLDLAEQV
partner: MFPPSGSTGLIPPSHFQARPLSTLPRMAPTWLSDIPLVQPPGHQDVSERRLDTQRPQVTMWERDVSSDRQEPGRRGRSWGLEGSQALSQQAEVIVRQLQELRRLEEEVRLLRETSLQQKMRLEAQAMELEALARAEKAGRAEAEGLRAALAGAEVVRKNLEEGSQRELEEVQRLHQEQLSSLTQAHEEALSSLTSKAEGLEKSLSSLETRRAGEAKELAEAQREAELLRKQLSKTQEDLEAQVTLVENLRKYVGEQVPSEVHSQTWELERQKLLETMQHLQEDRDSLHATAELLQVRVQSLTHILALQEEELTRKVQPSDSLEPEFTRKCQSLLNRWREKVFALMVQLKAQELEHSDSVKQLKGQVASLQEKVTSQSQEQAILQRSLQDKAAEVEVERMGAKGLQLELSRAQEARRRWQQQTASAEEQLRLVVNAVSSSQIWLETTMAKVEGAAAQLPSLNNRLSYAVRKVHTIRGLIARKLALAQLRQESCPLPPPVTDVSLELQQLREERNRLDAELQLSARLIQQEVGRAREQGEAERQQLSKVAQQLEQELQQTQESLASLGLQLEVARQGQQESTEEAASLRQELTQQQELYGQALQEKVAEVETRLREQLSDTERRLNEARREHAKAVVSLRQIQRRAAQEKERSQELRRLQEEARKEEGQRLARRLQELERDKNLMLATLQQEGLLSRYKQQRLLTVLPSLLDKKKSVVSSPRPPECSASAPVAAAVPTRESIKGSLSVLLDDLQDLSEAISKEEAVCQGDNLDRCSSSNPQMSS
B7: Myomegalin (Homo sapiens), Q5VU43-2 (parent)
chain: MKEICRICARELCGNQRRWIFHTASKLNLQVLLSHVLGKDVPRDGKAEFACSKCAFMLDRIYRFDTVIARIEALSIERLQKLLLEKDRLKFCIASMYRKNNDDSGAEIKAGNGTVDMSVLPDARYSALLQEDFAYSGFECWVENEDQIQEPHSCHGSEGPGNRPRRCRGCAALRVADSDYEAICKVPRKVARSISCGPSSRWSTSICTEEPALSEVGPPDLASTKVPPDGESMEEETPGSSVESLDASVQASPPQQKDEETERSAKELGKCDCCSDDQAPQHGCNHKLELALSMIKGLDYKPIQSPRGSRLPIPVKSSLPGAKPGPSMTDGVSSGFLNRSLKPLYKTPVSYPLELSDLQELWDDLCEDYLPLRVQPMTEELLKQQKLNSHETTITQQSVSDSHLAELQEKIQQTEATNKILQEKLNEMSYELKCAQESSQKQDGTIQNLKETLKSRERETEELYQVIEGQNDTMAKLREMLHQSQLGQLHSSEGTSPAQQQVALLDLQSALFCSQLEIQKLQRVVRQKERQLADAKQCVQFVEAAAHESEQQKEASWKHNQELRKALQQLQEELQNKSQQLRAWEAEKYNEIRTQEQNIQHLNHSLSHKEQLLQEFRELLQYRDNSDKTLEANEMLLEKLRQRIHDKAVALERAIDEKFSALEEKEKELRQLRLAVRERDHDLERLRDVLSSNEATMQSMESLLRAKGLEVEQLSTTCQNLQWLKEEMETKFSRWQKEQESIIQQLQTSLHDRNKEVEDLSATLLCKLGPGQSEIAEELCQRLQRKERMLQDLLSDRNKQVLEHEMEIQGLLQSVSTREQESQAAAEKLVQALMERNSELQALRQYLGGRDSLMSQAPISNQQAEVTPTGRLGKQTDQGSMQIPSRDDSTSLTAKEDVSIPRSTLGDLDTVAGLEKELSNAKEELELMAKKERESQMELSALQSMMAVQEEELQVQAADMESLTRNIQIKEDLIKDLQMQLVDPEDIPAMERLTQEVLLLREKVASVESQGQEISGNRRQQLLLMLEGLVDERSRLNEALQAERQLYSSLVKFHAHPESSERDRTLQVELEGAQVLRSRLEEVLGRSLERLNRLETLAAIGGAAAGDDTEDTSTEFTDSIEEEAAHHSHQQL
partner: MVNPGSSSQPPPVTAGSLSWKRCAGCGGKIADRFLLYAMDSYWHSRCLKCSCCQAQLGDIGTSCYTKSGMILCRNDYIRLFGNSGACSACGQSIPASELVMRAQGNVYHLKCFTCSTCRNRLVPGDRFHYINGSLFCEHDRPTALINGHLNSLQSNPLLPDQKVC

Variants of: B1
Settings: with myd88_human MYD88, Q99836
Sequence of myd88_human MYD88, Q99836 (Q99836 whole entry): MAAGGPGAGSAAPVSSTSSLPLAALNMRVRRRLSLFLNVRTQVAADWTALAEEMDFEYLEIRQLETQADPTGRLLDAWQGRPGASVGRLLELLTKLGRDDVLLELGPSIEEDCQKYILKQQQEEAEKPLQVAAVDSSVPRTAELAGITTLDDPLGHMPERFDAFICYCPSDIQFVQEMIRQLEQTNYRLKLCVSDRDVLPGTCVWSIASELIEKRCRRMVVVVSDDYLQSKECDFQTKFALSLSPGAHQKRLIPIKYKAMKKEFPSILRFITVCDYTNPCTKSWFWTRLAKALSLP
For D73E, the “effect of a mutation on the interaction” value was “disrupting interaction strength”. With R391H the “effect of a mutation on the interaction” value was “with no effect”. For T76I, the “effect of a mutation on the interaction” value was “disrupting interaction strength”. With R12C the “effect of a mutation on the interaction” value was “disrupting interaction strength”. With R12H the “effect of a mutation on the interaction” value was “disrupting interaction strength”. For G298D, the “effect of a mutation on the interaction” value was “disrupting interaction strength”. With A428T the “effect of a mutation on the interaction” value was “with no effect”.

Variants of: B2
Settings: with rara_human RARA
A86V was tested, and the “effect of a mutation on the interaction” value was “with no effect”.

Variants of: B3
Settings: with haus1_human HAUS1, Q96CS2
With R66G the “effect of a mutation on the interaction” value was “with no effect”.

Variants of: B4
Settings: with KRT15, P19012
Sequence of KRT15, P19012 (P19012 whole entry): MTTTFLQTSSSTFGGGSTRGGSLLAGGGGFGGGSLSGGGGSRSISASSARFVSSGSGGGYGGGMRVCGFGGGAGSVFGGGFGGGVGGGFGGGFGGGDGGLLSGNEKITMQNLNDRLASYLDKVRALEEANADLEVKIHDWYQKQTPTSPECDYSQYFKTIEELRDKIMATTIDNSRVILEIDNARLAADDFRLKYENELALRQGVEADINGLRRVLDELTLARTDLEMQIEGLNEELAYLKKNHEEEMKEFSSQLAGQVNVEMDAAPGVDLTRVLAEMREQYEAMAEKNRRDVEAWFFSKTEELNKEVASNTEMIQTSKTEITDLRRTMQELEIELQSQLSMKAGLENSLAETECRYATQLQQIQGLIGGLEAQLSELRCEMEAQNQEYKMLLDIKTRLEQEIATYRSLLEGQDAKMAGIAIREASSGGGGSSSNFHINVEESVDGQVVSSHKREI
With R327C the “effect of a mutation on the interaction” value was “with no effect”. With R408H the “effect of a mutation on the interaction” value was “with no effect”.

Variants of: B5
Settings: with ppl13_human LGALS14, Q8TCE9
For E423G, the “effect of a mutation on the interaction” value was “with no effect”.

Variants of: B6
Settings: with cchcr_human CCHCR1, Q8TD31
With T224I the “effect of a mutation on the interaction” value was “with no effect”.

Variants of: B7
Settings: with lmo4_human LMO4, P61968
With N28S the “effect of a mutation on the interaction” value was “with no effect”.
